The text below walks through data of the supplement of paper PMC7125110.

The labels stand for the following.
B1: glmS ribozyme (parent)
chain: AUAAAAGCGCCAGAACUACAGAAAUGUAGUUGACGAGGAGGAGGUUUAUCGAAUUUUCGGCGGAUGCCUCCAAA

± gives the standard error. Variants at the floor of the assay were thinned out. Bounds are passed on as bounds.

The first series covers variants of B1. Nature of the series: self-cleavage kobs at 2500 uM GlcN6P; higher = faster cleavage; RNA array. The note with it: with glucosamine-6-phosphate. Summed up:
(§1)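 kobs was derived by fitting per-tile medians to one- or two-exponential decays after normalising signals to baseline and to non-cleaving reference variants. Those signals came from barcoded ribozyme variants transcribed in situ by E. coli RNA polymerase on sequenced MiSeq chips, followed through a hybridised Cy3 probe at 37 °C and imaged over ~14 h. Glucosamine-6-phosphate (40 μM to 10 mM) in HEPES/KCl/Mg(OAc)2 buffer was flowed in. Weighted Michaelis–Menten fits across concentrations then gave kcat and KM.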
Regarding G32U A48C G51C, the “self-cleavage kobs at 2500 uM GlcN6P” value was less than 1e-05 s⁻¹.

Regarding A14U U57A A64G, the “self-cleavage kobs at 2500 uM GlcN6P” value came out at 3.21e-05 ± 1.3e-05 s⁻¹.

A12G G59U G60U U65G: the “self-cleavage kobs at 2500 uM GlcN6P” value is less than 1e-05 s⁻¹.

Consider C50U U55A C68G, for which the “self-cleavage kobs at 2500 uM GlcN6P” value amounted to 0.00018 ± 5.2e-05 s⁻¹.

Take A6U C16U A53G C71G: the “self-cleavage kobs at 2500 uM GlcN6P” value amounted to 5.25e-05 ± 2.3e-05 s⁻¹.

Consider C8G A12U A39U, for which the “self-cleavage kobs at 2500 uM GlcN6P” value is less than 1e-05 s⁻¹.

Take G7A U31A G44C: the “self-cleavage kobs at 2500 uM GlcN6P” value was less than 1e-05 s⁻¹.

In the case of C8A A14G C68U C70G, the “self-cleavage kobs at 2500 uM GlcN6P” value is less than 1e-05 s⁻¹.

On to C16G G40C U45G, for which the “self-cleavage kobs at 2500 uM GlcN6P” value was determined as 6.01e-05 ± 2.1e-05 s⁻¹.

As to G37A U65G C67A, the “self-cleavage kobs at 2500 uM GlcN6P” value worked out at 4.8e-05 ± 1.1e-05 s⁻¹.

Consider A14G U30A G41C, for which the “self-cleavage kobs at 2500 uM GlcN6P” value turned out to be 0.000337 ± 0.00013 s⁻¹.

C8A G32U G37U: the “self-cleavage kobs at 2500 uM GlcN6P” value was less than 1e-05 s⁻¹.

As for U31C G32C G37U G41C U46A A53U U55A A64C, the “self-cleavage kobs at 2500 uM GlcN6P” value was less than 1e-05 s⁻¹.

Consider A36G U45G C67A, for which the “self-cleavage kobs at 2500 uM GlcN6P” value was less than 1e-05 s⁻¹.

In the case of G7A G9C A36C, the “self-cleavage kobs at 2500 uM GlcN6P” value is less than 1e-05 s⁻¹.

As to G7U C68A, the “self-cleavage kobs at 2500 uM GlcN6P” value is less than 1e-05 s⁻¹.

Consider A14U C50A A53G C70A, for which the “self-cleavage kobs at 2500 uM GlcN6P” value turned out to be 7.44e-05 ± 1.4e-05 s⁻¹.

Take G29U G32C U47C C67G: the “self-cleavage kobs at 2500 uM GlcN6P” value is less than 1e-05 s⁻¹.

In the case of C16G U30A G35U A36C A53U, the “self-cleavage kobs at 2500 uM GlcN6P” value is less than 1e-05 s⁻¹.

Regarding C8A G29U C68G, the “self-cleavage kobs at 2500 uM GlcN6P” value was less than 1e-05 s⁻¹.

As for A42G G43U G60U C61A, the “self-cleavage kobs at 2500 uM GlcN6P” value was less than 1e-05 s⁻¹.

Regarding A39G U57A, the “self-cleavage kobs at 2500 uM GlcN6P” value is 0.000309 ± 7e-05 s⁻¹.

As to A14G A39U C67A, the “self-cleavage kobs at 2500 uM GlcN6P” value came to 0.0121 ± 0.003 s⁻¹.

Turning to A53G C61G G62A, the “self-cleavage kobs at 2500 uM GlcN6P” value was less than 1e-05 s⁻¹.

Take U30G A33C G66U: the “self-cleavage kobs at 2500 uM GlcN6P” value was less than 1e-05 s⁻¹.

For G32U U55G U56G, the “self-cleavage kobs at 2500 uM GlcN6P” value came out at 0.000148 ± 4.3e-05 s⁻¹.

On to G7A A12G A15U G44U U45A A53C, for which the “self-cleavage kobs at 2500 uM GlcN6P” value is less than 1e-05 s⁻¹.

As to G13U G51C U57A C71A, the “self-cleavage kobs at 2500 uM GlcN6P” value is less than 1e-05 s⁻¹.

With A6U A12C C34U A48G C61G A64U, the “self-cleavage kobs at 2500 uM GlcN6P” value is less than 1e-05 s⁻¹.

For C16G G29C A53U, the “self-cleavage kobs at 2500 uM GlcN6P” value came to 0.00684 ± 0.0022 s⁻¹.

As to G38C U49C U57A U65G C70G, the “self-cleavage kobs at 2500 uM GlcN6P” value is less than 1e-05 s⁻¹.

In the case of G7A G32U G60U, the “self-cleavage kobs at 2500 uM GlcN6P” value is less than 1e-05 s⁻¹.

For A15U G41C, the “self-cleavage kobs at 2500 uM GlcN6P” value is 2.7e-05 ± 1.2e-05 s⁻¹.

G40C U45G C58U: the “self-cleavage kobs at 2500 uM GlcN6P” value was less than 1e-05 s⁻¹.

As for A14U C16G G38C G41C U47G, the “self-cleavage kobs at 2500 uM GlcN6P” value is less than 1e-05 s⁻¹.

On to A12G A53G U69C, for which the “self-cleavage kobs at 2500 uM GlcN6P” value came out at 0.000297 ± 0.00012 s⁻¹.

For the variant G7C G9U G59U, the “self-cleavage kobs at 2500 uM GlcN6P” value was less than 1e-05 s⁻¹.

With G7U A52U U55C, the “self-cleavage kobs at 2500 uM GlcN6P” value was less than 1e-05 s⁻¹.

For A14G G44U U56A, the “self-cleavage kobs at 2500 uM GlcN6P” value amounted to 0.000881 ± 0.00031 s⁻¹.

A15G C34G A42U C67G: the “self-cleavage kobs at 2500 uM GlcN6P” value is less than 1e-05 s⁻¹.

G32C A39C C61G C70U: the “self-cleavage kobs at 2500 uM GlcN6P” value is less than 1e-05 s⁻¹.

Take C11U G40U A42U G44A: the “self-cleavage kobs at 2500 uM GlcN6P” value was less than 1e-05 s⁻¹.

Regarding A12U U56A C68A, the “self-cleavage kobs at 2500 uM GlcN6P” value came to 6.47e-05 ± 1.9e-05 s⁻¹.

Turning to U31C C58A C61U A64U, the “self-cleavage kobs at 2500 uM GlcN6P” value was less than 1e-05 s⁻¹.

With U30G G43U U47A U56A, the “self-cleavage kobs at 2500 uM GlcN6P” value was less than 1e-05 s⁻¹.

As to C11A A15U G44C, the “self-cleavage kobs at 2500 uM GlcN6P” value was less than 1e-05 s⁻¹.

For the variant A6C A36G C61G G66A, the “self-cleavage kobs at 2500 uM GlcN6P” value was less than 1e-05 s⁻¹.

In the case of A14U U30G G38A U69G, the “self-cleavage kobs at 2500 uM GlcN6P” value came to 0.00012 ± 5.3e-05 s⁻¹.

Consider G38U C67G C68U, for which the “self-cleavage kobs at 2500 uM GlcN6P” value was 0.000248 ± 8.4e-05 s⁻¹.

Take A12G C16U A53C: the “self-cleavage kobs at 2500 uM GlcN6P” value was found to be 7.22e-05 ± 1.7e-05 s⁻¹.

For A14U U30A C71G, the “self-cleavage kobs at 2500 uM GlcN6P” value amounted to 5.1e-05 ± 1.2e-05 s⁻¹.

Consider C16U U57G U65A C70A, for which the “self-cleavage kobs at 2500 uM GlcN6P” value was 0.000271 ± 0.00013 s⁻¹.

Consider A14U G29C G44U, for which the “self-cleavage kobs at 2500 uM GlcN6P” value is less than 1e-05 s⁻¹.

Consider C50A A53U C67U C68G, for which the “self-cleavage kobs at 2500 uM GlcN6P” value is 4.54e-05 ± 2.1e-05 s⁻¹.

For the variant C8G G59C A64G, the “self-cleavage kobs at 2500 uM GlcN6P” value is less than 1e-05 s⁻¹.

In the case of U30A G41U C70G, the “self-cleavage kobs at 2500 uM GlcN6P” value amounted to 0.00387 ± 0.0011 s⁻¹.

As to A6C A14C G32A G38U, the “self-cleavage kobs at 2500 uM GlcN6P” value is less than 1e-05 s⁻¹.

Consider A15U G35U G40A, for which the “self-cleavage kobs at 2500 uM GlcN6P” value is less than 1e-05 s⁻¹.

A14U G66A C70U: the “self-cleavage kobs at 2500 uM GlcN6P” value is 0.00125 ± 0.00031 s⁻¹.

For U30A G38A A39G C58A G63C C71A, the “self-cleavage kobs at 2500 uM GlcN6P” value was less than 1e-05 s⁻¹.

As for A33C G35U U57C, the “self-cleavage kobs at 2500 uM GlcN6P” value was less than 1e-05 s⁻¹.

With A6C U31C G59C G62U, the “self-cleavage kobs at 2500 uM GlcN6P” value is less than 1e-05 s⁻¹.

With A12U G41C U46G C68A, the “self-cleavage kobs at 2500 uM GlcN6P” value is less than 1e-05 s⁻¹.

Consider A14G U46C U54A C71A, for which the “self-cleavage kobs at 2500 uM GlcN6P” value is 0.000844 ± 0.00027 s⁻¹.

As for U31C U49C U65G, the “self-cleavage kobs at 2500 uM GlcN6P” value is less than 1e-05 s⁻¹.

For the variant C10U G40A A52C G60U, the “self-cleavage kobs at 2500 uM GlcN6P” value is less than 1e-05 s⁻¹.

For the variant C8G A12U C16U G43U, the “self-cleavage kobs at 2500 uM GlcN6P” value is less than 1e-05 s⁻¹.

For the variant A15G G37C U57G C67U, the “self-cleavage kobs at 2500 uM GlcN6P” value is less than 1e-05 s⁻¹.

Consider A6U C10U A12C G60A C67U, for which the “self-cleavage kobs at 2500 uM GlcN6P” value was less than 1e-05 s⁻¹.

For G29U G38C U56G, the “self-cleavage kobs at 2500 uM GlcN6P” value is less than 1e-05 s⁻¹.

In the case of A33U A64C C70A, the “self-cleavage kobs at 2500 uM GlcN6P” value is less than 1e-05 s⁻¹.

As to A15U U54C U65A, the “self-cleavage kobs at 2500 uM GlcN6P” value worked out at 0.000123 ± 2.8e-05 s⁻¹.

Consider C34U C50A C58G G62C, for which the “self-cleavage kobs at 2500 uM GlcN6P” value was less than 1e-05 s⁻¹.

As for A42G G51U C67U, the “self-cleavage kobs at 2500 uM GlcN6P” value is less than 1e-05 s⁻¹.

For G32C U54C, the “self-cleavage kobs at 2500 uM GlcN6P” value was determined as 1.41e-05 ± 5.6e-06 s⁻¹.

With C10G C11G G13U U69C C70G, the “self-cleavage kobs at 2500 uM GlcN6P” value is less than 1e-05 s⁻¹.

With C10G G37C C67U, the “self-cleavage kobs at 2500 uM GlcN6P” value is less than 1e-05 s⁻¹.

Consider G7U C8U G32U C50U, for which the “self-cleavage kobs at 2500 uM GlcN6P” value is less than 1e-05 s⁻¹.

Take A33C U49G U69C: the “self-cleavage kobs at 2500 uM GlcN6P” value is less than 1e-05 s⁻¹.

With G7A A14G G38A, the “self-cleavage kobs at 2500 uM GlcN6P” value is less than 1e-05 s⁻¹.

The variants in a further series derive from B1. Nature of the series: self-cleavage kobs at 10000 uM GlcN6P; higher = faster cleavage; RNA array. The note with it: with glucosamine-6-phosphate. Summed up:
as §1
C8A G29U C68G: the “self-cleavage kobs at 10000 uM GlcN6P” value is less than 1e-05 s⁻¹.

Regarding A39G U57A, the “self-cleavage kobs at 10000 uM GlcN6P” value stood at 0.000335 ± 6.1e-05 s⁻¹.

For G32U U55G U56G, the “self-cleavage kobs at 10000 uM GlcN6P” value turned out to be 0.000376 ± 8.4e-05 s⁻¹.

For G7U A52U U55C, the “self-cleavage kobs at 10000 uM GlcN6P” value is less than 1e-05 s⁻¹.

With U30A G38A A39G C58A G63C C71A, the “self-cleavage kobs at 10000 uM GlcN6P” value is less than 1e-05 s⁻¹.

Regarding A12U G41C U46G C68A, the “self-cleavage kobs at 10000 uM GlcN6P” value was less than 1e-05 s⁻¹.

As to A15U U54C U65A, the “self-cleavage kobs at 10000 uM GlcN6P” value was found to be 0.000335 ± 3.8e-05 s⁻¹.

Take G32C U54C: the “self-cleavage kobs at 10000 uM GlcN6P” value came to 8.23e-05 ± 1.2e-05 s⁻¹.
